Where two headings read alike, the source gives them in different places. Values belong to the molecule of their own block, whether it stands above or below them. Where no end group is shown, it is not given here. TAMRA = tetramethylrhodamine
Experiments:
[1] = biological target: URAT1 peptide (15 C-terminal residues of human URAT1), TAMRA-labelled (human); experiment: fluorescence polarisation
[2] = biological target: NaPi-IIa peptide (15 C-terminal residues of NaPi-IIa), TAMRA-labelled (human (identical in mouse)); experiment: fluorescence polarisation
[3] = biological target: N-terminally biotinylated URAT1 peptide (human); experiment: SPR
[4] = biological target: T1, full-length mouse Nherf1 (mouse, UniProt P70441 1-355); experiment: fluorescence polarisation
T1 sequence (looked up): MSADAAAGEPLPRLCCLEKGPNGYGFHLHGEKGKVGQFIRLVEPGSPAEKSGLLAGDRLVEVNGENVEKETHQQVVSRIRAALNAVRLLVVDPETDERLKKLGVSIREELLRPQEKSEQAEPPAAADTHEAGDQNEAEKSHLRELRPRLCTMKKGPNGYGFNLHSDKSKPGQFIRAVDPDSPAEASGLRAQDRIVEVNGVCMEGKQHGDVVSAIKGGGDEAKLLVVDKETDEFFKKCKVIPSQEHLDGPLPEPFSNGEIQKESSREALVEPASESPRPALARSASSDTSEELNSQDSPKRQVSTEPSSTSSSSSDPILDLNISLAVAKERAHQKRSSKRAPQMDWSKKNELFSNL

[5] = biological target: T2, full-length mouse Pdzk1 (mouse, UniProt Q9JIL4 1-519); experiment: fluorescence polarisation
T2 sequence (looked up): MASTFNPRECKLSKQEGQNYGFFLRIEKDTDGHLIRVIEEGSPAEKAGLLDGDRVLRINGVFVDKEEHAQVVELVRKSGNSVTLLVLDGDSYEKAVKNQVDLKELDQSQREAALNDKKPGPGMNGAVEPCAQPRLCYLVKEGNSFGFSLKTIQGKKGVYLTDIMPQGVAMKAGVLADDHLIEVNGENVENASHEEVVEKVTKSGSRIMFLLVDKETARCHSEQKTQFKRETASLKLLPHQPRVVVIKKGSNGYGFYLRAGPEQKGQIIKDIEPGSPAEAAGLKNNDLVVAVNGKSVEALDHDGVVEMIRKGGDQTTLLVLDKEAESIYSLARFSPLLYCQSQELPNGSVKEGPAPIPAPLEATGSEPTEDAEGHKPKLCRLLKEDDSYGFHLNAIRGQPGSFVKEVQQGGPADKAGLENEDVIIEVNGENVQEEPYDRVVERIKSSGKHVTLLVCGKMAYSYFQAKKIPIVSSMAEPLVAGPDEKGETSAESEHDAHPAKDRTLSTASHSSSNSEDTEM

[6] = biological target: T3, full-length human NHERF1 (human, UniProt O14745 1-358); experiment: fluorescence polarisation
T3 sequence (looked up): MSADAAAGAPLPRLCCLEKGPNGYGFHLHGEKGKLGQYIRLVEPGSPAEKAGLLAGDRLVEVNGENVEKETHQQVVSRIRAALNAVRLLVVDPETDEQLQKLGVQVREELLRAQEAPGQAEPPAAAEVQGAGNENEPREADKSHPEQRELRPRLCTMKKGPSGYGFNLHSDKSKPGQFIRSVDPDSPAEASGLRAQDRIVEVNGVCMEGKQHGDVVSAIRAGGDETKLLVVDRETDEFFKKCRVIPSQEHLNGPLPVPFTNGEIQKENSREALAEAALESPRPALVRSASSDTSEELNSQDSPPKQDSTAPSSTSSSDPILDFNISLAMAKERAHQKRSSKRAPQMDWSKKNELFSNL

[7] = biological target: T4, full-length human PDZK1 (NHE3 regulatory factor 3, NHERF3) (human, UniProt Q5T2W1 1-519); experiment: SEC
T4 sequence (looked up): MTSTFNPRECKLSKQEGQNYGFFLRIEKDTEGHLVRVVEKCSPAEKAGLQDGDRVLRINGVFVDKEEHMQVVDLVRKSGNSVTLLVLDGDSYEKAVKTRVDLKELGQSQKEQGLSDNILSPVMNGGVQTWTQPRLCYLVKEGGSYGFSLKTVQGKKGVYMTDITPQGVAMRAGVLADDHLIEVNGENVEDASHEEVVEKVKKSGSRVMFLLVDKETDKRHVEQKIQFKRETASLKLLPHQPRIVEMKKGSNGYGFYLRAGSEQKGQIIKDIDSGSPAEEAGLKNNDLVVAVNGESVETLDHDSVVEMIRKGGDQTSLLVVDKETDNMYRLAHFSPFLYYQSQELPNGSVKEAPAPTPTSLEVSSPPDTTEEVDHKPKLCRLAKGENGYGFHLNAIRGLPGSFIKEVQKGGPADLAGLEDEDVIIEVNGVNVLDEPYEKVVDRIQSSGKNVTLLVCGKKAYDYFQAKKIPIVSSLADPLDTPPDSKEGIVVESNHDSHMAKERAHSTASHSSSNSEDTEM

[8] = biological target: T4, full-length human PDZK1 (NHE3 …); experiment: SEC; remark: listed apart in the source
[9] = biological target: T4, full-length human PDZK1 (NHE3 …); experiment: fluorescence polarisation

Kd [1]: 22.1 µM
Molecule: PDZ2 domain of human PDZK1 (3PDZ2), C-terminal His8-tag (domain or fragment)

Kd [2]: > 170 µM
Molecule: PDZ2 domain of human NHERF1 (1PDZ2), C-terminal His8-tag (domain or fragment)

Kd [2]: 4.4 µM
Molecule: PDZ1 domain of human NHERF1 (1PDZ1), C-terminal His8-tag (domain or fragment)

Kd [1]: > 200 µM
Molecule: PDZ3 domain of human PDZK1 (3PDZ3), C-terminal His8-tag (domain or fragment)

Kd [3]: 1.78 µM
koff [3]: 0.631 s⁻¹
kon [3]: 354000 M⁻¹ s⁻¹
Kd [1]: 1.35 µM
Molecule: PDZ4 domain of human PDZK1 (3PDZ4), C-terminal His8-tag (domain or fragment)

Kd [3]: 1.1 µM
koff [3]: 0.494 s⁻¹
kon [3]: 448000 M⁻¹ s⁻¹
Kd [1]: 0.16 µM
Kd [2]: 12.5 µM
Molecule: PDZ1 domain of human PDZK1 (3PDZ1), tag-less (domain or fragment)

Kd [4]: 0.59 µM
Kd [5]: 0.026 µM
Molecule: {TAMRA}-THDTPDGSILMSTRL [Urat1 peptide (15 C-terminal residues of murine Urat1), TAMRA-labelled]

Kd [6]: > 70 µM
Molecule: {TAMRA}-THGTLGNSVLKSTQF [URAT1 peptide (15 C-terminal residues of human URAT1), TAMRA-labelled]

stoichiometry N [7]: 1.5 GFP^URAT1 per PDZK1 at the peak maximum
stoichiometry N [8]: 1.4 GFP^URAT1 per PDZK1 at the peak maximum
Molecule: THGTLGNSVLKSTQF (not fully specified) [URAT1 peptide fused to the C-terminus of enhanced green fluorescent protein (GFP^URAT1)]

Kd [4]: 4.9 µM
Kd [9]: 8.1 µM
Kd [5]: 4 µM
Kd [6]: 4 µM
Molecule: {TAMRA}-SPRLALPAHHNATRL [NaPi-IIa peptide (15 C-terminal residues of NaPi-IIa), TAMRA-labelled]
